Test results taken from patent US20220144960A1 (NANJING LEGEND BIOTECH, published 2022).

T1: CD30 on CD30-expressing tumor cell lines (HH, MJ, H9) (UniProt P28908 19-595)
T1 sequence (looked up): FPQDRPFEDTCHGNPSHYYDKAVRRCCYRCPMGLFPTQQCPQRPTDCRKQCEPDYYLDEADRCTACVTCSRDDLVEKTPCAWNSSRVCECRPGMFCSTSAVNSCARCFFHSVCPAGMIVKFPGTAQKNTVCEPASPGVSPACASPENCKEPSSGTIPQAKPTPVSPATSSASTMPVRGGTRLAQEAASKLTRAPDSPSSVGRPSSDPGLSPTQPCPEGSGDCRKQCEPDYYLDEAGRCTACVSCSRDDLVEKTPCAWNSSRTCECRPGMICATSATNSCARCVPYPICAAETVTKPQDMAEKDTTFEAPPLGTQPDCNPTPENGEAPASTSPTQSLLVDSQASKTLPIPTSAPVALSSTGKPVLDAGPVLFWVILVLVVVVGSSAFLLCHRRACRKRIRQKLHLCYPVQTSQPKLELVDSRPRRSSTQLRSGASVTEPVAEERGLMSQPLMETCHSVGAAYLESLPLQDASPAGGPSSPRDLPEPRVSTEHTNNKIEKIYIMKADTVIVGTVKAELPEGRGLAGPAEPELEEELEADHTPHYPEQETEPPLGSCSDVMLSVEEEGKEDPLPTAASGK


Key:
[1] = biological target: T1, CD30 on CD30-expressing tumor cell …; experiment: cell-based or functional assay
[2] = biological target: T1, CD30 on CD30-expressing tumor cell …; experiment: cell-based or functional assay; remark: listed apart in the source

| Binder | % H9 cell lysis E:T = 2:1 (LDH assay, CAR T cells) [1] | % MJ cell lysis E:T = 1:1 (LDH assay, CAR T cells) [1] | % H9 cell lysis E:T = 0.2:1 (FACS method, CAR T cells) [2] | % MJ cell lysis E:T = 0.2:1 (FACS method, CAR T cells) [2] |
| --- | --- | --- | --- | --- |
| AS48463VH4dil-bbz CAR (other) EVQLLESGGGLVQPGGSLRLSCAASGFTFANSDMGWYRQAPGKGCELVSIISSHGGTTYYVDSVKGRFTISRDNSKNTLYLQMNSLRAEDTAVYYCVADPRSNCRGGYCCGYWGQGTLVTVSSGGGGSGGGGSGGGGSEVQLLESGGGLVQPGGSLRLSCAASGFTFANSDMGWYRQAPGKGCELVSIISSHGGTTYYVDSVKGRFTISRDNSKNTLYLQMNSLRAEDTAVYYCVADPRSNCRGGYCCGYWGQGTLVTVSSTTTPAPRPPTPAPTIASQPLSLRPEACRPAAGGAVHTRGLDFACDIYIWAPLAGTCGVLLLSLVITLYCKRGRKKLLYIFKQPFMRPVQTTQEEDGCSCRFPEEEEGGCELRVKFSRSADAPAYKQGQNQLYNELNLGRREEYDVLDKRRGRDPEMGGKPRRKNPQEGLYNELQKDKMAEAYSEIGMKGERRRGKGHDGLYQGLSTATKDTYDALHMQALPPR | 63% | 53% | 30.8% | 26.3% |
| AS47863VH4dil-bbz CAR (other) EVQLVESGGGLVQPGGSLRLSCAASGSTFGDSDMGWYRQAPGKGCELVSIISSDGRTYYVDSVKGRFTISQDNSKNTLYLQMNSLRAEDTAVYYCAADLRQYCRDGRCCGYWGQGTLVTVSSGGGGSGGGGSGGGGSEVQLVESGGGLVQPGGSLRLSCAASGSTFGDSDMGWYRQAPGKGCELVSIISSDGRTYYVDSVKGRFTISQDNSKNTLYLQMNSLRAEDTAVYYCAADLRQYCRDGRCCGYWGQGTLVTVSSTTTPAPRPPTPAPTIASQPLSLRPEACRPAAGGAVHTRGLDFACDIYIWAPLAGTCGVLLLSLVITLYCKRGRKKLLYIFKQPFMRPVQTTQEEDGCSCRFPEEEEGGCELRVKFSRSADAPAYKQGQNQLYNELNLGRREEYDVLDKRRGRDPEMGGKPRRKNPQEGLYNELQKDKMAEAYSEIGMKGERRRGKGHDGLYQGLSTATKDTYDALHMQALPPR | 64% | 50% | 44.2% | 30.4% |

The next lines start with the values.

| % H9 cell lysis E:T = 2:1 (LDH assay, CAR T cells) [1] | % MJ cell lysis E:T = 1:1 (LDH assay, CAR T cells) [1] | % H9 cell lysis E:T = 0.2:1 (FACS method, CAR T cells) [2] | % MJ cell lysis E:T = 0.2:1 (FACS method, CAR T cells) [2] | Binder |
| --- | --- | --- | --- | --- |
| 84% | 76% | 29.8% | 50.5% | AS53574VH7-AS48542VH5bil-bbz CAR (other) EVQLVESGGGLVQPGGSLRLSCAASGYIYSSNCMGWFRQAPGKGREWVARIHTGSGSTYYADSVKGRFTISQDNSKNTLYLQMNSLRAEDTAVYDCAAGRVVLGAVVCTNEYWGQGTLVTVSSGGGGSGGGGSGGGGSEVQLVESGGGLVQPGGSLRLSCATSAFTFDGPDMAWYRQAPGKGCELVSIISADGRTYYADSVKGRFTISRDNSKNTVYLQMNSLRAEDTAVYYCALDPRKNCRGGYCCANWGQGTLVTVSSTTTPAPRPPTPAPTIASQPLSLRPEACRPAAGGAVHTRGLDFACDIYIWAPLAGTCGVLLLSLVITLYCKRGRKKLLYIFKQPFMRPVQTTQEEDGCSCRFPEEEEGGCELRVKFSRSADAPAYKQGQNQLYNELNLGRREEYDVLDKRRGRDPEMGGKPRRKNPQEGLYNELQKDKMAEAYSEIGMKGERRRGKGHDGLYQGLSTATKDTYDALHMQALPPR |
| 66% | 64% | 40.4% | 63.4% | AS48542VH5dil-bbz CAR (other) EVQLVESGGGLVQPGGSLRLSCATSAFTFDGPDMAWYRQAPGKGCELVSIISADGRTYYADSVKGRFTISRDNSKNTVYLQMNSLRAEDTAVYYCALDPRKNCRGGYCCANWGQGTLVTVSSGGGGSGGGGSGGGGSEVQLVESGGGLVQPGGSLRLSCATSAFTFDGPDMAWYRQAPGKGCELVSIISADGRTYYADSVKGRFTISRDNSKNTVYLQMNSLRAEDTAVYYCALDPRKNCRGGYCCANWGQGTLVTVSSTTTPAPRPPTPAPTIASQPLSLRPEACRPAAGGAVHTRGLDFACDIYIWAPLAGTCGVLLLSLVITLYCKRGRKKLLYIFKQPFMRPVQTTQEEDGCSCRFPEEEEGGCELRVKFSRSADAPAYKQGQNQLYNELNLGRREEYDVLDKRRGRDPEMGGKPRRKNPQEGLYNELQKDKMAEAYSEIGMKGERRRGKGHDGLYQGLSTATKDTYDALHMQALPPR |
